From the RNAGym collection of RNA variant scans (doi:10.1073/pnas.2313332121)

B1: TPR t1 (parent)
chain: GACCAAUCUGCCCUCAGAGCUCGAGAACAUCUUCGGAUGCAGAGGAGGCAGGCUUCGGUGGCGCGAUAGCGCCAACGUCCUCAACCUCCAAUGCAUCCCACCACAUGAUGAUGCCUGAAGAGCCUUGGUUUUUUG

Variants of: B1
Assay: polymerase ribozyme fitness, log enrichment relative to wild type (log ratio); higher = more active; in vitro selection for triplet polymerase activity
How it was run: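 Mutant libraries of both subunits of a heterodimeric triplet polymerase ribozyme were PCR-built, transcribed, and selected once in triplicate, with frozen incubation at −7 °C and capture of gel-excised extended constructs on streptavidin beads before RT-PCR. Illumina sequencing of input and output libraries was filtered to genotypes with ≥10 input reads and ≥1 read per output. Fitness is the logarithm of genotype enrichment over wild-type enrichment, using inverse-variance-weighted replicate averages. The logarithm is base 2.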

Variant | polymerase ribozyme fitness (log ratio)
GACCAAUCUGCCCUCAGAGCUCGAGAACAUCUUCGGAUGCAGAGGAGGCAGGCUUCGGUGGCCCGAUAGCGCCAACGUCCUCAACCUCCAAUGCAUCCCACCACAUGAUGAUGCCUGAAGAGCCUAGUUUUUAUG [G63C U126A G128U U133A] | -3.25
GACCAAUCUGCCCUCAGAGCUCGAGAACAUCUUCGGAUGCAGAGGAGGCAGGCUUCGGUGGCACGAUAGCGCCAACGUCCUCAACCUCCAAUGCAUCCCACCACAAGAUGAUGCCUGAAGAGCCUUGGUUUUGUG [G63A U106A U133G] | -1.47
GACCAAUCUGCCCUCAGAGCUCGAGAACAUCUUCGGAUGCAGAGGAGGCAGGCUUCGGUGGCCCGAUAGCGCCAACGUCCUCAACCUCCAAUGCAUCCCACCACAUGAUGAUGCCAGAAGAGCCUUGGUUUUUUG [G63C U116A] | -3.47
GACCAAUCUGCCCUCAGAGCUCGAGAACAUCUUCGGAUGCAGAGGAGGCAGGCUUCGGUGGCCCGAUAGCGCCAACGUCCUCAACCUCCAAUGCAUCCCACCACAUGAUGAUGCCUGAAGAGCCUUGGUUUUUUG [G63C] | -0.722
GACCAAUCUGCCCUCAGAGCUCGAGAACAUCUUCGGAUGCAGAGGAGGCAGGCUUCGGUGGCUCGAUAGCGCCAACGUCCUCAACCUCCAAUGCAUCCCACCACAUGAUGAUGCCUGAAGAGCCUUGGUUUUUUG [G63U] | -1.18
GACCAAUCUGCCCUCAGAGCUCGAGAACAUCUUCGGAUGCAGAGGAGGCAGGCUUCGGUGGCUCGAUAGCGCCAACGUCCUCAACCUCCACGGCAUCCCACCACAUGAUGAUGCCUGAAGAGCCUUGGUUUUUUG [G63U A91C U92G] | -4.45
GACCAAUCUGCCCUCAGAGCUCGAGAACAUCUUCGGAUGCAGAGGAGGCAGGCUUCGGUGGCACGAUAGCGCCAACGUCCUCAACCUCCAAUGCAUCCCACCACAUGAUGAUGCCUGAAGAGCCUUGGUUUCUUG [G63A U132C] | -1.92
GACCAAUCUGCCCUCAGAGCUCGAGAACAUCUUCGGAUGCAGAGGAGGCAGGCUUCGGUGGCACGAUAGCGCCAACGUCCUCAACCUCCAAUGCAUCCCACCACAUGAUGAAGGCUGAAGAUCCUUGGUUUUUUG [G63A U112A C114G G122U] | -1.75
GACCAAUCUGCCCUCAGAGCUCGAGAACAUCUUCGGAUGCAGAGGAGGCAGGCUUCGGUGGCCCGAUAGCGCCAACGUCCUCAACCUCCAAUGCAUCCCACCACAUGAUUAUGCCUGAAGAGUCUUGCUUUUUUG [G63C G110U C123U G128C] | -5.59
GACCAAUCUGCCCUCAGAGCUCGAGAACAUCUUCGGAUGCAGAGGAGGCAGGCUUCGGUGGCCCGAUAGCGCCAACGUCCUCAACCUCCAAUGCAUCCCACCACAUGAUGAUGCCUGAACAGCCUUGGUUAUUUG [G63C G120C U131A] | 0.5
GACCAAUCUGCCCUCAGAGCUCGAGAACAUCUUCGGAUGCAGAGGAGGCAGGCUUCGGUGGCCCGAUAGCGCCAACGUCCUCAACCUCCAAUGCAUCCCACCACAUGAUGAUGCCUGAAGAGCCUUGGUAUUUUG [G63C U130A] | -0.551
GACCAAUCUGCCCUCAGAGCUCGAGAACAUCUUCGGAUGCAGAGGAGGCAGGCUUCGGUGGCUCGAUAGCGCCAACGUCCUCAACCUCCAAUGCAUCCCACCGCAUGAUGAUGCCUGAAGAGCCUUGGUUUUUUG [G63U A103G] | -5.82
GACCAAUCUGCCCUCAGAGCUCGAGAACAUCUUCGGAUGCAGAGGAGGCAGGCUUCGGUGGCCCGAUAGCGCCAACGUCCUCAACCUCCAAUGCAUCCCACCACAUGAUGAUGCCUGAAGAGCCUUUGUUUUUUG [G63C G127U] | -1.97
GACCAAUCUGCCCUCAGAGCUCGAGAACAUCUUCGGAUGCAGAGGAGGCAGGCUUCGGUGGCACGAUAGCGCCAACGUCCUCAACCUCCAAUGCAGCCCACCACAUGAUGAAGCCUGAAGAGCCUUGGUUUUUUG [G63A U96G U112A] | -1.56
GACCAAUCUGCCCUCAGAGCUCGAGAACAUCUUCGGAUGCAGAGGAGGCAGGCUUCGGUGGCCCGAUAGCGCCAACGUCCUCAACCUCCAAUGCAUCCCACAACAUGAUGAAGCCUGAAGAGCCUUGGUUUUUUG [G63C C102A U112A] | -1.64
GACCAAUCUGCCCUCAGAGCUCGAGAACAUCUUCGGAUGCAGAGGAGGCAGGCUUCGGUGGCCCGAUAGCGCCAACGUCCUCAAGCUCCAAUGCAUCCCACCACAUGAUGAUGCCUGAAGAGCCUUGGUUUUUUG [G63C C85G] | -1.96
GACCAAUCUGCCCUCAGAGCUCGAGAACAUCUUCGGAUGCAGAGGAGGCAGGCUUCGGUGGCCCGAUAGCGCCAACGUCUUCAACCUCCAAUGCAUCCCACCACAUGAUAAUGCCUGAAGAGCCUUGGUUUUUUG [G63C C80U G110A] | -2.48
GACCAAUCUGCCCUCAGAGCUCGAGAACAUCUUCGGAUGCAGAGGAGGCAGGCUUCGGUGGCCCGAUAGCGCCAACGUCCUCAACCUCCAAUGCAUCCCAUUACAUGAUGAUGCCUGAACAGCCUUGGUUUUUUG [G63C C101U C102U G120C] | -2.17
GACCAAUCUGCCCUCAGAGCUCGAGAACAUCUUCGGAUGCAGAGGAGGCAGGCUUCGGUGGCCCGAUAGCGCCAACGUCCUCAUCCUCCAAUGCAUCCCACCACAUGAUGAUGCCUAAAGAGCCUUGGUUUUUUG [G63C A84U G117A] | -2.46
GACCAAUCUGCCCUCAGAGCUCGAGAACAUCUUCGGAUGCAGAGGAGGCAGGCUUCGGUGGCCCGAUAGCGCCAACGUCCUCAACCUCCAAUGCAUCCCACCACAUGAUGAUGCCUGAAGAGCUUUGGUUUUUUG [G63C C124U] | 0.611
GACCAAUCUGCCCUCAGAGCUCGAGAACAUCUUCGGAUGCAGAGGAGGCAGGCUUCGGUGGCCCGAUAGCGCCAACGUCCUCAACCUCCGAUUCAUCCCACCACAUGAUGAUGCCUGGAGAGCCUUGGUUUUUUG [G63C A90G G93U A118G] | -1.31

Variant | polymerase ribozyme fitness (log ratio)
GACCAAUCUGCCCUCAGAGCUCGAGAACAUCUUCGGAUGCAGAGGAGGCAGGCUUCGGUGGCCCGAUAGCGCCAACGUCCUCAACCUCCAAUGCAUCCCACCACAUGAUAAUGCCUGAAGAGCCUUGGUUUUUUG [G63C G110A] | -1.89
GACCAAUCUGCCCUCAGAGCUCGAGAACAUCUUCGGAUGCAGAGGAGGCAGGCUUCGGUGGCCCGAUAGCGCCAACGUCCUCAACCUCCAAUGCAUCCCACCACAUGAUGAUGCCUGAAGAACCUUGGUUUUUUG [G63C G122A] | -0.479
GACCAAUCUGCCCUCAGAGCUCGAGAACAUCUUCGGAUGCAGAGGAGGCAGGCUUCGGUGGCACGAUAGCGCCAACGUCCUCAACCUCCAAUGCAUCCCACCACAUGAUGAUGCCUGAAGAGCCUUGGGUUUUUG [G63A U129G] | -0.825
GACCAAUCUGCCCUCAGAGCUCGAGAACAUCUUCGGAUGCAGAGGAGGCAGGCUUCGGUGGCCCGAUAGCGCCAACGUCCUCAACCUCCAAUGCAUCCCACCACAUGAUGAUACCUGAAGAGCCUUGGUUUUUUG [G63C G113A] | -2.11
GACCAAUCUGCCCUCAGAGCUCGAGAACAUCUUCGGAUGCAGAGGAGGCAGGCUUCGGUGGCCCGAUAGCGCCAACGUCCUCAACCUCCAAUGCAUGCCACCACAUGAUGAUGCCUGAAGAGCCUUGGUUUUUUG [G63C C97G] | -4.59
GACCAAUCUGCCCUCAGAGCUCGAGAACAUCUUCGGAUGCAGAGGAGGCAGGCUUCGGUGGCACGAUAGCGCCAACGUCCUCAACCUCCAAUGCAUCCCACCACAUGAUGAGGCCUGAAGAGCCUUGGUUUUUUG [G63A U112G] | -1.1
GACCAAUCUGCCCUCAGAGCUCGAGAACAUCUUCGGAUGCAGAGGAGGCAGGCUUCGGUGGCUCGAUAGCGCCAACGUCCUCUACCUCCAAUGCAUCCCAGCACAUGAUGAUGCCUGAAGAGCCUUGGUUUUUUG [G63U A83U C101G] | -2.97
GACCAAUCUGCCCUCAGAGCUCGAGAACAUCUUCGGAUGCAGAGGAGGCAGGCUUCGGUGGCCCGAUAGCGCCAACGUCCUCAACCUCCAAUGCAUCCCACCACAUGUUGAUGCCUGAAGUACCUUGGUUUUUUG [G63C A108U A121U G122A] | -7.45
GACCAAUCUGCCCUCAGAGCUCGAGAACAUCUUCGGAUGCAGAGGAGGCAGGCUUCGGUGGCUCGAUAGCGCCAACGUCCUCAACCUCCUAUGCAUCCCACCACAUGAUGAUCCCUGAAGAGCCUUGGUUUUUUG [G63U A90U G113C] | -3.41
GACCAAUCUGCCCUCAGAGCUCGAGAACAUCUUCGGAUGCAGAGGAGGCAGGCUUCGGUGGCCCGAUAGCGCCAACGUCCUCAACCUCCAAUGCAUCCCAUCACAUGAUGAUGCCUGAAGAGCCUUUGUUUUUUG [G63C C101U G127U] | -1.08
GACCAAUCUGCCCUCAGAGCUCGAGAACAUCUUCGGAUGCAGAGGAGGCAGGCUUCGGUGGCACGAUAGCGCCAACGUCCUCAACCUCCAAUGCAUCCCACCACAUGAUGAUGCCCGAAGAGCCUUUGUUUUAUG [G63A U116C G127U U133A] | -5.28
GACCAAUCUGCCCUCAGAGCUCGAGAACAUCUUCGGAUGCAGAGGAGGCAGGCUUCGGUGGCUCGAUAGCGCCAACGUCCUCAACCUCCAAUGCAUCCCACCACAUGAUGCUGCCUGAAGAGCCUUGGUUUUUUG [G63U A111C] | -1.67
GACCAAUCUGCCCUCAGAGCUCGAGAACAUCUUCGGAUGCAGAGGAGGCAGGCUUCGGUGGCCCGAUAGCGCCAACGUCCUCAACCUCCAAUGCAUCCCACCACAUAAUGAUGCCUGAAGAGCCUUGGUUUUUUG [G63C G107A] | -4.87
GACCAAUCUGCCCUCAGAGCUCGAGAACAUCUUCGGAUGCAGAGGAGGCAGGCUUCGGUGGCCCGAUAGCGCCAACGUCCUCAACCUCCAAUGCAUCCCUCCACAUGAUAAUGCGUGAAGAGCCUUGGUUUUUUG [G63C A100U G110A C115G] | -6.05
GACCAAUCUGCCCUCAGAGCUCGAGAACAUCUUCGGAUGCAGAGGAGGCAGGCUUCGGUGGCUCGAUAGCGCCAACGUCCUCAACCUCCAAUGCAUCCCACCACAUGAUGAUGCCUGAAGCGCCUUGGUUUUUUG [G63U A121C] | 0.0306
GACCAAUCUGCCCUCAGAGCUCGAGAACAUCUUCGGAUGCAGAGGAGGCAGGCUUCGGUGGCUCGAUAGCGCCAACGUCCUCAACCUCCAAUGCAUCCCACCACAUGAUGAUGCCUGAAGUGCCUUGGUUUUUUG [G63U A121U] | 0.749
GACCAAUCUGCCCUCAGAGCUCGAGAACAUCUUCGGAUGCAGAGGAGGCAGGCUUCGGUGGCCCGAUAGCGCCAAUGUCCUCAACCGCCAAUGCAUCCCACCACAUGAUGAUGCCAGAAAAGCCUUGGUUUUUUG [G63C C76U U87G U116A G120A] | -4.12
GACCAAUCUGCCCUCAGAGCUCGAGAACAUCUUCGGAUGCAGAGGAGGCAGGCUUCGGUGGCCCGAUAGCGCCAACGUCCUCAACCUCCAUUGCAUCCCACCACAUGAUGAUGACUGGAGAGCCUUGGUUUAUUG [G63C A91U C114A A118G U132A] | -4.5
GACCAAUCUGCCCUCAGAGCUCGAGAACAUCUUCGGAUGCAGAGGAGGCAGGCUUCGGUGGCCCGAUAGCGCCAACGUCCUCAACCUCCAAUGCAUCCCACCACAUGAUGAUGCCUGAAGAGCCGUGGUUUUUUG [G63C U125G] | -2.2
GACCAAUCUGCCCUCAGAGCUCGAGAACAUCUUCGGAUGCAGAGGAGGCAGGCUUCGGUGGCCCGAUAGCGCCAACGACCUCAACCUCCAAUGCAUCCCACCACAUGAUGAUGCCUGAAGAGCCUUGGUUUUUUG [G63C U78A] | -0.719
GACCAAUCUGCCCUCAGAGCUCGAGAACAUCUUCGGAUGCAGAGGAGGCAGGCUUCGGUGGCCCGAUAGCGCCAACGUCCUCAACCUCUAAUGCAUCCCACUACAUGAUGCUGCUUGAAGAGCCUUGGUUUUUUG [G63C C89U C102U A111C C115U] | -6.78
